The values that follow come from patent publication US20150299313A1 (Chugai, published 2015).

The target in experiment [1] is T1, soluble human IL-6 receptor (human, UniProt P08887 20-357).
T1 construct: also called hsIL-6R; hIL6R
T1 sequence: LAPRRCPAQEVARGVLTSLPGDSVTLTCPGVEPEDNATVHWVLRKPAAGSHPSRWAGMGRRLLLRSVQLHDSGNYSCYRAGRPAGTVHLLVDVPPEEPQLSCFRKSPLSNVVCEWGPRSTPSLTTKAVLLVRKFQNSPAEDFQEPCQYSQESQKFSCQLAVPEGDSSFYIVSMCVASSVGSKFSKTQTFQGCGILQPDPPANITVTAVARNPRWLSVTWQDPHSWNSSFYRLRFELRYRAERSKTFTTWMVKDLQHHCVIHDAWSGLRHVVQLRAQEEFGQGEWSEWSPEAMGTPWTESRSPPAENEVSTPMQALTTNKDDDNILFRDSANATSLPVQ
Put plainly: SPR (Biacore T100), 3 uM CaCl2, pH 7.4, 37 C; roughly calculated by Req=C*Rmax/(KD+C)+RI; 3 µM CaCl2; KD estimated by Expression 1.

The target of experiment [2] is T1, soluble human IL-6 receptor. As to the kind of experiment: SPR (Biacore T100), pH 7.4, 37 C. As to the method: (§1) All samples were measured at 37° C.
(§2) Individual parameters were calculated by use of Biacore T100 Evaluation Software (GE Healthcare).
For orientation: Surface plasmon resonance follows binding to a sensor surface in real time, without labels.

The target is the same in experiment [3]. As to the kind of experiment: SPR (Biacore T100), 3 uM CaCl2, pH 7.4, 37 C (summary table). Here is the method:
as §1
From the sensorgram obtained by measurement, an association constant, ka (1/Ms) and a dissociation constant kd (1/s) as kinetics parameters were computationally obtained. From the values, KD (M) of each antibody to a human IL-6 receptor was calculated. Individual parameters were calculated by use of Biacore T100 Evaluation Software (GE Healthcare).
as §2

Experiment [4] shares this target. As to the kind of experiment: SPR (Biacore T100), antibody captured on anti-human IgG F(ab')2, human IL-6 receptor as analyte, 37 C, pH 7.4. Here is the method: (§3) Using Biacore T100 (GE Healthcare), kinetic analysis of antigen-antibody reactions between each of GL1-IgG1_kif+ and GL5-IgG1_kif+ and a human IL-6 receptor was performed. An appropriate amount of Anti-Human IgG (γ-chain specific) F(ab′)2 fragment antibody produced in goat (Sigma) was immobilized onto Sensor chip CM5 (GE Healthcare) by the amine coupling method and then a target antibody was allowed to capture. Subsequently, a human IL-6 receptor dilution solution and a running buffer (a blank) were injected at a flow rate of 20 μL/min for 3 minutes to allow the human IL-6 receptor to interact with the antibody captured on the sensor chip. Either one of two types of running buffers (pH 7.4 and pH 6.0 containing 10 mmol/L ACES, 150 mmol/L NaCl, and 0.05% (w/v) Tween20) was used, and each buffer was employed for dilution of IL-6R. Thereafter, a running buffer was fed at a flow rate 20 μL/min for 5 minutes. After dissociation of the IL-6 receptor was observed, a 10 mmol/L Glycine-HCl (pH 1.5) solution was injected at a flow rate of 30 μL/min for 5 seconds. This procedure was repeated five times to regenerate the sensor chip. All samples were measured at 37° C. […] From the values, KD (M) of each antibody to a human IL-6 receptor was calculated. Individual parameters were calculated by use of Biacore T100 Evaluation Software (GE Healthcare).

For experiment [5] the target is unchanged. Put plainly: SPR (Biacore T100), antibody captured on anti-human IgG F(ab')2, human IL-6 receptor as analyte, 37 C, pH 6.0. As to the method: as §3

B1: FH4-IgG1 (antibody, V domains shown)
VH: QVQLVQSGAEVKKPGSSVKVSCKASGGTFSSYAISWVRQAPGQGLEWMGGIIPIFGTANYAQKFQGRVTITADESTSTAYMELSSLRSEDTAVYYCARERDYYDSSGYYDAFDIWGQGTMVTVSS
VL: ETTVTQSPSFLSASVGDRVTITCITTTDIDDDMNWFQQEPGKAPKLLISEGNILRPGVPSRFSSSGYGTDFTLTISKLQPEDFATYYCLQSDNLPFTFGQGTKLEIKR
notes: Ca-dependent anti-IL-6R antibody from a human phage library
On to B1, for which the Kd (as a rule, the concentration at which binding is half-saturated) was around 34 µM in experiment [1] and at least 34 µM in experiment [3]. Moreover, the “Ca dependency (KD at 3 uM CaCl2 against KD at 2 mM CaCl2)” value in experiment [2] is at least 60 fold.

B2: 6RL#9-IgG1 (antibody, V domains shown)
VH: QVQLVQSGAEVKKPGASVKVSCKASGYTFTSYYMHWVRQAPGQGLEWMGIINPSGGSTSYAQKFQGRVTMTRDTSTSTVYMELSSLRSEDTAVYYCARDDPGGGEYYFDYWGQGTLVTVSS
VL: QSVLTQPPSVSGAPGQRVTISCTGSRSNMGAGYDVHWYQLLPGAAPKLLISHNTHRPSGVPDRFSGSKSGASASLAITGLQAEDEADYYCQSHDSSLSAVVFGGGTKLTVLS
notes: as for B1
For B2, the Kd in experiment [1] is around 31 µM; in experiment [3], at least 31 µM. The “Ca dependency (KD at 3 uM CaCl2 against KD at 2 mM CaCl2)” value in experiment [2] was at least 120 fold.

B3: GL1-IgG1_kif+ (antibody)
heavy: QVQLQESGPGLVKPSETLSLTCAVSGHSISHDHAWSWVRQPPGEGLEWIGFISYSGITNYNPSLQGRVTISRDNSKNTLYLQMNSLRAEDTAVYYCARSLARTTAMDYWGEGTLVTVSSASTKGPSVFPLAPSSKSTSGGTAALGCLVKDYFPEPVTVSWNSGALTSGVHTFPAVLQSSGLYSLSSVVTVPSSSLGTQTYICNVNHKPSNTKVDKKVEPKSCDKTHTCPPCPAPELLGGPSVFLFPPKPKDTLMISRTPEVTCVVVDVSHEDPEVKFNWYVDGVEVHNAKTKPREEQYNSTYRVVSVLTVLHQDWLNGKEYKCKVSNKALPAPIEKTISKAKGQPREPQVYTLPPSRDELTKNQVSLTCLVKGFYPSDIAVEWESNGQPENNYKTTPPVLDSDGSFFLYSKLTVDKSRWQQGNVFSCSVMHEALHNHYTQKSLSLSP
light: DIQMTQSPSSLSASVGDSVTITCQASTDISSHLNWYQQKPGKAPELLIYYGSHLLSGVPSRFSGSGSGTDFTFTISSLEAEDAATYYCGQGNRLPYTFGQGTKVEIERTVAAPSVFIFPPSDEQLKSGTASVVCLLNNFYPREAKVQWKVDNALQSGNSQESVTEQDSKDSTYSLSSTLTLSKADYEKHKVYACEVTHQGLSSPVTKSFNRGEC
modifications: high mannose sugar chain (expressed in the presence of kifunensine)
notes: Expressed with 10 ug/mL kifunensine in the culture; also called GL1-G1_kif+
On to B3, for which the results for the dissociation constant Kd in experiment [4] and in experiment [5] were 0.0015 µM and 0.071 µM, respectively.

B4: GL5-IgG1_kif+ (antibody)
heavy: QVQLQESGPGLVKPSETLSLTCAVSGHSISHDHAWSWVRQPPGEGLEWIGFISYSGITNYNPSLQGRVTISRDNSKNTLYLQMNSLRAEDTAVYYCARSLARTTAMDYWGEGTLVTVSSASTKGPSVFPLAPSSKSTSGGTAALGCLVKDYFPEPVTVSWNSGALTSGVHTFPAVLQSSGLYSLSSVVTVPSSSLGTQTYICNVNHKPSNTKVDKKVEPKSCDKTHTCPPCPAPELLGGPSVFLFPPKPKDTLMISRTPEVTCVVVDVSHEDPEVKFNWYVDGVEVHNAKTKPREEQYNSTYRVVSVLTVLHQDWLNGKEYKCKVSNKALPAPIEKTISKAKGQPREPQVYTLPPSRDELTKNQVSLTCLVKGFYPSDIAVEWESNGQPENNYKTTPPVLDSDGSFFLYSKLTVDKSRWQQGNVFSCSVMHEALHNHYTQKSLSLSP
light: DIQMTQSPSSLSASVGDNVTITCNASTDISSHLNWYQQKPGKAPELLIYYGSHLLSGVPSRFSGSGSGTDFTFTISSLEAEDAATYYCGQGNRLPYTFGQGTKVEIERTVAAPSVFIFPPSDEQLKSGTASVVCLLNNFYPREAKVQWKVDNALQSGNSQESVTEQDSKDSTYSLSSTLTLSKADYEKHKVYACEVTHQGLSSPVTKSFNRGEC
modifications: two high mannose N-linked sugar chains (Man6-Man9 with Man9) on the light chain; high mannose sugar chain (expressed in the presence of kifunensine)
notes: Expressed with 10 ug/mL kifunensine in the culture; also called GL5-G1_kif+
Turning to B4, the results for the Kd in experiment [4] and in experiment [5] were 0.0014 µM and 0.066 µM, respectively.
